Data taken from patent US6043072, “Nucleic acids encoding Taxus geranylgeranyl diphosphate synthase, and methods of use” (Washington State University Research Foundation, dated 2000).

Biological target: the molecule itself
Test: gel permeation chromatography on calibrated Superdex G-75 (about 60,000 against the predicted monomer of 32.1 kDa) with SDS-PAGE; self-association (homodimer)
Experimental: After centrifugation as above, the cell pellet was resuspended in 80 ml of ice cold 50 mM Tris (pH 7.6) containing 10% (v/v) glycerol, 10 mM MgCl_2, 5 mM DTT, and 1 μg/ml leupeptin (extraction/assay buffer). All subsequent operations were conducted at 0–4° C. Cells were disrupted with 150 ml glass beads using a Biospec Bead-Beater operated at 90 V for 5 min, and the resulting debris was removed by centrifugation at 3000 g for 20 min to yield a supernatant that was further clarified by centrifugation at 31,000 g for 20 min. The resulting supernatant was used as the enzyme source.

B1: T. canadensis GGPP synthase Tr^295 truncated protein (enzyme)
chain: FDFNEYMKSKAVAVDAALDKAIPLEYPEKIHESMRYSLLAGGKRVRPALCIAACELVGGSQDLAMPTACAMEMIHTMSLIHDDLPCMDNDDFRRGKPTNHKVFGEDTAVLAGDALLSFAFEHIAVATSKTVPSDRTLRVISELGKTIGSQGLVGGQVVDITSEGDANVDLKTLEWIHIHKTAVLLECSVVSGGILGGATEDEIARIRRYARCVGLLFQVVDDILDVTKSSEELGKTAGKDLLTDKATYPKLMGLEKAKEFAAELATRAKEELSSFDQIKAAPLLGLADYIAFRQN
binding result: binds
